# Patent publication US20200079833A1 (AstraZeneca / MedImmune, published 2020)
# Starred links: 1 amine or outer side, 2 acyl side, 3 side chain; linkers in the order of their positions; H or OH if unused. Non-standard residues stand in square brackets, D forms with d. Groups on a side chain read outwards from the residue. No end group written: not given here. *: point of attachment. γGlu = O=C(O)[C@H](CCC(=O)[*:2])N[*:1]; Palmitoyl = CCCCCCCCCCCCCCCC(=O)*; αMeF = C[C@](N)(Cc1ccccc1)C(=O)O; αMeK = C[C@](N)(CCCCN)C(=O)O; αMeS = C[C@](N)(CO)C(=O)O; Aib = CC(C)(N)C(=O)O
# T1: glucose-dependent insulinotropic peptide (gastric inhibitory polypeptide) receptor (human, UniProt P48546 22-466)
# T1 sequence (looked up): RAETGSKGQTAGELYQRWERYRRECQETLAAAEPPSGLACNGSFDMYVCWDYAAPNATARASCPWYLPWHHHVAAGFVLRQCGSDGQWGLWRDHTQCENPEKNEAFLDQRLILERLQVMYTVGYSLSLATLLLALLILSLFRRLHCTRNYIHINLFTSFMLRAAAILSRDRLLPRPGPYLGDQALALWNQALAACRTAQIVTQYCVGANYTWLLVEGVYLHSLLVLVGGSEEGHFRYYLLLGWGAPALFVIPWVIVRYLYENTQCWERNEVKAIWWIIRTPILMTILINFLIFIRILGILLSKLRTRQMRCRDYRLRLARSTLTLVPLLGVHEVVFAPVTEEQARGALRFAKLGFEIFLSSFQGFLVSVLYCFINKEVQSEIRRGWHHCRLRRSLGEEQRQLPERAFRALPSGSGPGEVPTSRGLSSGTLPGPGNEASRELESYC
# B1: SEQ ID NO 77 (peptide)
# peptide: H[Aib]EGS[αMeF]TSDV[αMeS]S[αMeF]LEGEAA[αMeK]E[αMeF]K([γGlu-Palmitoyl])A[αMeF]VV[αMeK]GG-NH2
# modifications: N-terminus assumed
# SMILES: CCCCCCCCCCCCCCCC(=O)N[C@@H](CCC(=O)NCCCC[C@H](NC(=O)[C@](C)(Cc1ccccc1)NC(=O)[C@H](CCC(=O)O)NC(=O)[C@](C)(CCCCN)NC(=O)[C@H](C)NC(=O)[C@H](C)NC(=O)[C@H](CCC(=O)O)NC(=O)CNC(=O)[C@H](CCC(=O)O)NC(=O)[C@H](CC(C)C)NC(=O)[C@](C)(Cc1ccccc1)NC(=O)[C@H](CO)NC(=O)[C@](C)(CO)NC(=O)[C@@H](NC(=O)[C@H](CC(=O)O)NC(=O)[C@H](CO)NC(=O)[C@@H](NC(=O)[C@](C)(Cc1ccccc1)NC(=O)[C@H](CO)NC(=O)CNC(=O)[C@H](CCC(=O)O)NC(=O)C(C)(C)NC(=O)[C@@H](N)Cc1c[nH]cn1)[C@@H](C)O)C(C)C)C(=O)N[C@@H](C)C(=O)N[C@@](C)(Cc1ccccc1)C(=O)N[C@H](C(=O)N[C@H](C(=O)N[C@@](C)(CCCCN)C(=O)NCC(=O)NCC(N)=O)C(C)C)C(C)C)C(=O)O
# B2: SEQ ID NO 74 (peptide)
# peptide: H[Aib]EGS[αMeF]TSDV[αMeS]S[αMeF]LEGEAA[αMeK]E[αMeF]IA[αMeF]K([γGlu-Palmitoyl])V[αMeK]GG-NH2
# modifications: N-terminus assumed
# SMILES: CCCCCCCCCCCCCCCC(=O)N[C@@H](CCC(=O)NCCCC[C@H](NC(=O)[C@](C)(Cc1ccccc1)NC(=O)[C@H](C)NC(=O)[C@@H](NC(=O)[C@](C)(Cc1ccccc1)NC(=O)[C@H](CCC(=O)O)NC(=O)[C@](C)(CCCCN)NC(=O)[C@H](C)NC(=O)[C@H](C)NC(=O)[C@H](CCC(=O)O)NC(=O)CNC(=O)[C@H](CCC(=O)O)NC(=O)[C@H](CC(C)C)NC(=O)[C@](C)(Cc1ccccc1)NC(=O)[C@H](CO)NC(=O)[C@](C)(CO)NC(=O)[C@@H](NC(=O)[C@H](CC(=O)O)NC(=O)[C@H](CO)NC(=O)[C@@H](NC(=O)[C@](C)(Cc1ccccc1)NC(=O)[C@H](CO)NC(=O)CNC(=O)[C@H](CCC(=O)O)NC(=O)C(C)(C)NC(=O)[C@@H](N)Cc1c[nH]cn1)[C@@H](C)O)C(C)C)[C@@H](C)CC)C(=O)N[C@H](C(=O)N[C@@](C)(CCCCN)C(=O)NCC(=O)NCC(N)=O)C(C)C)C(=O)O
# B3: SEQ ID NO 75 (peptide)
# peptide: H[Aib]EGS[αMeF]TSDV[αMeS]S[αMeF]LEGEAA[αMeK]E[αMeF]IAK([γGlu-Palmitoyl])VV[αMeK]GG-NH2
# modifications: N-terminus assumed
# SMILES: CCCCCCCCCCCCCCCC(=O)N[C@@H](CCC(=O)NCCCC[C@H](NC(=O)[C@H](C)NC(=O)[C@@H](NC(=O)[C@](C)(Cc1ccccc1)NC(=O)[C@H](CCC(=O)O)NC(=O)[C@](C)(CCCCN)NC(=O)[C@H](C)NC(=O)[C@H](C)NC(=O)[C@H](CCC(=O)O)NC(=O)CNC(=O)[C@H](CCC(=O)O)NC(=O)[C@H](CC(C)C)NC(=O)[C@](C)(Cc1ccccc1)NC(=O)[C@H](CO)NC(=O)[C@](C)(CO)NC(=O)[C@@H](NC(=O)[C@H](CC(=O)O)NC(=O)[C@H](CO)NC(=O)[C@@H](NC(=O)[C@](C)(Cc1ccccc1)NC(=O)[C@H](CO)NC(=O)CNC(=O)[C@H](CCC(=O)O)NC(=O)C(C)(C)NC(=O)[C@@H](N)Cc1c[nH]cn1)[C@@H](C)O)C(C)C)[C@@H](C)CC)C(=O)N[C@H](C(=O)N[C@H](C(=O)N[C@@](C)(CCCCN)C(=O)NCC(=O)NCC(N)=O)C(C)C)C(C)C)C(=O)O
# B4: SEQ ID NO 10 (peptide)
# peptide: H[Aib]EGS[αMeF]TSDVSS[αMeF]VEGEAA[αMeK]E[αMeF]IA[αMeF]VV[αMeK]GG-NH2
# modifications: N-terminus assumed
# SMILES: CC[C@H](C)[C@H](NC(=O)[C@](C)(Cc1ccccc1)NC(=O)[C@H](CCC(=O)O)NC(=O)[C@](C)(CCCCN)NC(=O)[C@H](C)NC(=O)[C@H](C)NC(=O)[C@H](CCC(=O)O)NC(=O)CNC(=O)[C@H](CCC(=O)O)NC(=O)[C@@H](NC(=O)[C@](C)(Cc1ccccc1)NC(=O)[C@H](CO)NC(=O)[C@H](CO)NC(=O)[C@@H](NC(=O)[C@H](CC(=O)O)NC(=O)[C@H](CO)NC(=O)[C@@H](NC(=O)[C@](C)(Cc1ccccc1)NC(=O)[C@H](CO)NC(=O)CNC(=O)[C@H](CCC(=O)O)NC(=O)C(C)(C)NC(=O)[C@@H](N)Cc1c[nH]cn1)[C@@H](C)O)C(C)C)C(C)C)C(=O)N[C@@H](C)C(=O)N[C@@](C)(Cc1ccccc1)C(=O)N[C@H](C(=O)N[C@H](C(=O)N[C@@](C)(CCCCN)C(=O)NCC(=O)NCC(N)=O)C(C)C)C(C)C
# B5: SEQ ID NO 76 (peptide)
# peptide: H[Aib]EGS[αMeF]TSDV[αMeS]S[αMeF]LEGEAA[αMeK]E[αMeF]IK([γGlu-Palmitoyl])[αMeF]VV[αMeK]GG-NH2
# modifications: N-terminus assumed
# SMILES: CCCCCCCCCCCCCCCC(=O)N[C@@H](CCC(=O)NCCCC[C@H](NC(=O)[C@@H](NC(=O)[C@](C)(Cc1ccccc1)NC(=O)[C@H](CCC(=O)O)NC(=O)[C@](C)(CCCCN)NC(=O)[C@H](C)NC(=O)[C@H](C)NC(=O)[C@H](CCC(=O)O)NC(=O)CNC(=O)[C@H](CCC(=O)O)NC(=O)[C@H](CC(C)C)NC(=O)[C@](C)(Cc1ccccc1)NC(=O)[C@H](CO)NC(=O)[C@](C)(CO)NC(=O)[C@@H](NC(=O)[C@H](CC(=O)O)NC(=O)[C@H](CO)NC(=O)[C@@H](NC(=O)[C@](C)(Cc1ccccc1)NC(=O)[C@H](CO)NC(=O)CNC(=O)[C@H](CCC(=O)O)NC(=O)C(C)(C)NC(=O)[C@@H](N)Cc1c[nH]cn1)[C@@H](C)O)C(C)C)[C@@H](C)CC)C(=O)N[C@@](C)(Cc1ccccc1)C(=O)N[C@H](C(=O)N[C@H](C(=O)N[C@@](C)(CCCCN)C(=O)NCC(=O)NCC(N)=O)C(C)C)C(C)C)C(=O)O
# B6: SEQ ID NO 73 (peptide)
# peptide: H[Aib]EGS[αMeF]TSDV[αMeS]S[αMeF]LEGEAA[αMeK]E[αMeF]IA[αMeF]VK([γGlu-Palmitoyl])[αMeK]GG-NH2
# modifications: N-terminus assumed
# SMILES: CCCCCCCCCCCCCCCC(=O)N[C@@H](CCC(=O)NCCCC[C@H](NC(=O)[C@@H](NC(=O)[C@](C)(Cc1ccccc1)NC(=O)[C@H](C)NC(=O)[C@@H](NC(=O)[C@](C)(Cc1ccccc1)NC(=O)[C@H](CCC(=O)O)NC(=O)[C@](C)(CCCCN)NC(=O)[C@H](C)NC(=O)[C@H](C)NC(=O)[C@H](CCC(=O)O)NC(=O)CNC(=O)[C@H](CCC(=O)O)NC(=O)[C@H](CC(C)C)NC(=O)[C@](C)(Cc1ccccc1)NC(=O)[C@H](CO)NC(=O)[C@](C)(CO)NC(=O)[C@@H](NC(=O)[C@H](CC(=O)O)NC(=O)[C@H](CO)NC(=O)[C@@H](NC(=O)[C@](C)(Cc1ccccc1)NC(=O)[C@H](CO)NC(=O)CNC(=O)[C@H](CCC(=O)O)NC(=O)C(C)(C)NC(=O)[C@@H](N)Cc1c[nH]cn1)[C@@H](C)O)C(C)C)[C@@H](C)CC)C(C)C)C(=O)N[C@@](C)(CCCCN)C(=O)NCC(=O)NCC(N)=O)C(=O)O
# Target: GLP-1 receptor (human, UniProt P43220 24-463)
# Assay: cell-based or functional assay
"Primary assay EC50 (cAMP), Mean pM GLP-1R [pM]","Primary assay EC50 (cAMP), n1 [nM]","Primary assay EC50 (cAMP), n2 [nM]",Binder
1860,1.9,1.8,B1
2.1,0.0023,0.002,B2
1.7,0.002,0.0014,B3
90,0.087,0.093,B4
7.2,0.0084,0.006,B5
146,0.13,0.16,B6

# Target: glucagon receptor (human, UniProt P47871 26-477)
# Assay: cell-based or functional assay
# Chain of glucagon receptor (P47871 26-477): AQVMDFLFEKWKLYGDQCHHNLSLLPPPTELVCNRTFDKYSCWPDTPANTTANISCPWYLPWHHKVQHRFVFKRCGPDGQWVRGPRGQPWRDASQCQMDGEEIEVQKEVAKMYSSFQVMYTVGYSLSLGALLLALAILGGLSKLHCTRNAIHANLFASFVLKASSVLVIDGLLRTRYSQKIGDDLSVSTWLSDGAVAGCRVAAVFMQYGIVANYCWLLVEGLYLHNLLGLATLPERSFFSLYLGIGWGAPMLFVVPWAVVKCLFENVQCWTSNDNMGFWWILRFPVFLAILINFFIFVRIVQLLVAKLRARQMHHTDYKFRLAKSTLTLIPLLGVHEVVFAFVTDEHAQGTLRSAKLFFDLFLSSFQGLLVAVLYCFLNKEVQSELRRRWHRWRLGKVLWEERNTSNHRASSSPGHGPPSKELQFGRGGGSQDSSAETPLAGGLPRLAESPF
"Primary assay EC50 (cAMP), n1 [nM]","Primary assay EC50 (cAMP), n2 [nM]",Binder
28,28,B1
28,28,B2
28,28,B3
100,100,B4
27,27,B5
28,28,B6

# Target: T1, glucose-dependent insulinotropic …
# Assay: cell-based or functional assay
"Primary assay EC50 (cAMP), n1 [nM]","Primary assay EC50 (cAMP), n2 [nM]",Binder
28,28,B1
28,28,B2
28,28,B3
100,100,B4
27,27,B5
28,28,B6
